The record followed here is the DeepSol protein solubility set.

The data set can be described thus: soluble on expression in E. coli; label from the status in PepcDB or PDB records.
“MNGGEKLESIPIDLIIEIHSRLPAESVARFRCVSKLWGSMFRRPYFTELFLTRSRARPRLLFVLQHNRKWSFSVFSSPQNQNIYEKPSFVVADFHMKFSVSTFPDFHSCSGLIHFSMMKGAYTVPVVCNPRTGQYAVLPKLTRTRYENSYSFVGYDPIEKQIKVLFMSDPDSGDDHRILTLGTTEKMLGRKIECSLTHNILSNEGVCINGVLYYKASRIVESSSDDDTSDDDDDDHERSDVIVCFDFRCEKFEFIVICFYGQLINSVQLSLKQKSHQKLDLII”: the “soluble on expression in E. coli” value is “soluble”. Take “MGSDKIHHHHHHMGKLCSFLEKHKRSFPIGLSGNTGMGYILTGGISPLSRSKGLAIDQIIEIKGFWGNGKEFHLLRPNTKNELTNEWKALCGAAIFLGIITQVKLKTQPLRPLLSWTANLSFSELSECINQAESWPNSLSLQWIYGDDIFAHAIGEIKNTDDESVMIKLLEKLPFSRNRIINKFNNMKSLPNLSFGNNNNYNNSNHSEVLGLLGPAWQEKNKQVLKILKELINKRPNKSCYIASQQLGGLTHLNDLDTSFIHRDAIWKPWINGAWEAHNQAKRKRTLEWMTECWNNLEFICPGVHLAQIHPHLEWHKKELSSAFEDWLPNLEELKAIHDPRNIMPPLK”: the “soluble on expression in E. coli” value is “not soluble”. To “ARVLVVGDVMLDRYWFGEVDRISPEAPVPVVRVARREDRLGGAANVARNVAALGAQVTLIGVVGADEVGLRIERMAAEEGVRTDLVSDTEHPTTLKMRVLGRQQQLLRVDFEQHPEPAALDGISAAVARQLAQHDIVVLSDYAKGVLDRVESIIAAAVGHSLPVLVDPKGDHYERYRGATLVTPNRAEMREAVGRWKTEDELAERAQRLRLDLDLEALLVTRSEQGMTLFTDAGRDHADAAAHEVYDVSGAGDTVLATLAVMRAVGLSWGDAMRWANRAGGIVVGKLGTSVVTAAEL” belongs “not soluble”. As for “AIASQFDPDKFKQEQKARWNQGARSTWTLWKQTQVEDTPAKFFLGLVPIRPGVKVLDLACGSGETSLQVAQLVSSHLPSDSKDAKIVCVDISEEMLRVLSQRAQELGLSSVVETCCEDAENINFGTHYFDMVMSQFGVMFLPHLPEDLANIRKMMKPGSLFCCVVWGEEKDCHIFYAARSVVSPPPPPPGTPVSYGTKEKVMEALRKAEFSDVKAVEFQVVHETKDAEEYITLMSGVNQWLEKSLGEKGSGPWQKLVEYCNNSYRTSRGTLQFPNVCVGITAIA”, the entry is “soluble”. For “MGSDKIHHHHHHMSAIPIIDIPFDKRHTCWFCGEPCNQHFEYHSQTHTPHPSLAVPACSECAKLAKQHPLTSIWDCRMAVKDALMRIYAKHLAIGINWTEAELAESDFSCNIFEGFKKSAWMMYQIARDRINAPGWPLRLEEIEIDDQGYSAGFEFDGVTYTSVHAAIHYYSTQFTLDPTFFADLVRLVGRARFNYALRLARIHIASAKEMKRQVLTDLEAELI”, the “soluble on expression in E. coli” value was “not soluble”.

For “MEVQSMLLNDVKWEKPVTISLQNGAPRIFNGVYEAFDFLQHEWPARGDRAHEQALRLCRASLMGDVAGEIARTAFVAASRQAHCLMEDKAEAPNTIASGS”, the “soluble on expression in E. coli” value is “soluble”. To “NTLTVKMNDALSSGTGENIGEITVSETPYGLLFTPHLNGLTPGIHGFHVHTNPSCMPGMKDGKEVPALMAGGHLDPEKTGKHLGPYNDKGHLGDLPGLVVNADGTATYPLLAPRLKSLSELKGHSLMIHKGGDNYSDKPAPLGGGGARFACGVIEK” belongs “soluble”; to “MSLTSPSELRSGKTHRDENFPVASWIIHPRHRDLILAFYNFVRTADDIADHEMLDGDTKLEYLDLLEAELLGRGETQPEAVHLRRALAERGMPPRHALDLLTAFRMDVTKLRYEDWDEVIHYCRYSAMPVGRFMLDVHGESTTTWQASDALCAGLQINNHLQDCGKDYRTLNRVYLPRDVLDAAGAKVEDLGLQKSSPALLKCLQGLAVRTASLLGDGRPLAAEIKDYRLGLEVSVIQAYADRIVRMLQTRDPLSERVHLKPIEFVIASFGAMSSEIVRRSEGHHHHHH”, “soluble”. As for “MSLKNISLAMLARQIGVGVATVDRVLNERGGVSPQTTRKVLQAAREAGLKRILPEEHRFPWQIEVFLSSNDSFFFPQLAQDFAAVADSLGYRRLTLHRTFVPESQPTTLARRIARSCQQRQGIIVFGNDHPAVHDALRRCREAGVPAITLATDLPGADRLCHVGINQLQAGRTAGLMLGRMTPRPGEVLMVSGRQDYSAHRLRIQGFREVLSQRFPHLQLSDVLAGEERREQITRLVEQALCRSRNIVGIYNTGLGNTQIAEALARHRREGDVCWITHERYNTTRQQLAKGSLALTLDQNTRQHAQLAIDLMLRHLESGYQPQTYADGKVDFILYSAENVDEGHHHHHH”, the “soluble on expression in E. coli” value was “soluble”.

Consider “MLEALRKCPTMFAVTSDGSSTMAKMDNSARQLALFVATTNGEFYQSNFGEEALETIKYQLGKDAGWGLFFDVLRNAFNGNCVSILARSEDTAHILCGKEDCSEKSALCFPIQKTEEDTSATILKCLVDANAVYANPKEEKNKVQKIMEELEKAKLQVRMLEEEVRVLCENNIWRRKQDTKNTLKIGKLRDNISRLSNQINPKAKEVSETSVGETSGPHAEDSYIPGRKLLRLVFEKKECKEYDVELLRLIKSRWPKTEGSKACNASNCLIDPYTESELPERLSRMSKKHKMVWGTLNGLDDWDYNVFELQAAIDGDDINCKNDQSGCGALFITMYALVVKYGFLRKFEINERIFLNWLSAVEGGYHANPYHNSMHAADVLHITHYLLSKGGLAELCKLNDRQVLAALFAAAIHDYNHPGINNNFSILTQTYNATLYNDRSVLENMHVASVFELMRNPALNILACFSEEHWRDFRNTVIDMVLATDMSLHEKYMTQFKRRLSEKRPFTEDCDQNLALAMALKLADISNCCRPLPLYLKWSERVSDEFYTQGDRERSLGMSCSPFMDRQTPMIAEGQTSFINYIFIPFLEVMAEFLPSMGFTLGLAAVCKSHRLVGNTGQGT”, for which the “soluble on expression in E. coli” value is reported as “not soluble”. As to “MTVEQNEFLSSVQLQILAEQAIKQYPNEYQGSVKLLCQSENATFLVTTAQAKYALRIHRPNYHHLQDIESELAWLDALNQSGIEVPLAIADQDGQRVITLKLAEGISRYAVLFNWVNGSMPTTDVDPTAFQQLGQITAALHQHSKSWKRPEQFNRIVWNHDTMVGAQGHWGNWKHAPHLDQADHAVVEEAIARISTELCQYGAGEDRYGLIHADLRLTNLLLQDQQIGVIDFDDCGMSWFMHDLAAAISFNEHLDAAPQWVEHWLTGYEKTGHVQNHDYVMIPTFIMQRRIQMMAWNGSHAHTEMALSLGDQWSNETVRLCKKYLNGEMPVGRSNA”, the “soluble on expression in E. coli” value is given as “not soluble”. For the sequence “MGSDKIHHHHHHMTNWLPDPSALASPLHSSLALAIAKAISEGKLPKGTQLPTHRKLAEELGLSVHTVSKAYESLRRQRLIDGQVGRGSYVLDLNTPDDQPFQLSSERGRNFDLSISRPAFSQRHAELFQQVLADLPQGLDPSYYLACRPNVGHDAHRAAGETWLRICGLDVPSERIIMTNGVSHGMSAALSALARPGDTVVSSRITHHLLVSGCSYLGLNLVGIDFDQDGMLPDALDRHCSENNAKVLFLLPSLANTTVEMIPEERRQALVQVARKHNLYIIENDAFGPVAEDRPVPVAALAPERTIYLTTFTKCTVSGLRAGYMAAPEHLLPALTGRIVVFGWMATPLMCEIATRWVLDGTALELALWQRRALAERYEIASQALQGHQWRGHPSALHLWLPLESGWTTSSFVAYARQLKVAVAPDAPFLTPKTPPPNAVRISLGSVQDLSRFKQAMELVGGMLSRPPEGVAPLAF”, the “soluble on expression in E. coli” value is given as “not soluble”. With “MNELVSAFHIERANGKVNGDVVAVEPAKTVNQDAADDEVEIKLNVDNYQMLRSDSQGSLNSHGRSNSRLGRLFRSKHEMKKRETRADENRGEIEIQIDFDDLVNQLKIALIRCRDLMTFDKKDQCNPYVSVKLVALDGNKEVFKKKTPTAKNTRHPHFDNHVEIDINPSDLLNHKVVINVKDDTNYGTFVAKPVLGCLEIRLDSLMNRQLSQRWIPLSVERK”, the “soluble on expression in E. coli” value is given as “not soluble”. With “MGSDKIHHHHHHMSVGIRHDDLRRRNRAMVIAAVRRAGRPSRTEIAATTGLSHSTISAISSDLIGEGILAEGKPSEAGALKRGRPQVGLGLNPEAAAVMTVVLSLNFLSVAVIDYAGQVISEEQRRLDTLTMSREALIGECVAIVRRRLEDPDIDVRSVARIALAIQGITDTEARAMLWSPITPQTDIAFADILEAEFGIPATMENDCNMMAVALRWRDPERYRDDFIAILLSHGIGMGLVLKGELFTGTHSSGGEFGHMIHRPGGALCRCGRRGCVEAYAGNYAIWRNARQLSEDTEPVADVSDAQMRALAATARERDGPEREAYRKAGEALGYGLGSLFALIDPAPVAMVGVSAAAFDLIEPALREAIAQTAGGQHSESISFDTEPNELPLIREGCAMRALTFVDQEIFAPGVQTKAGLAAKKNVA”, the “soluble on expression in E. coli” value was “not soluble”. As for “MILKRAYDVTPQKISTDKVRGVRKRVLIGLKDAPNFVMRLFTVEPGGLIDRHSHPWEHEIFVLKGKLTVLKEQGEETVEEGFYIFVEPNEIHGFRNDTDSEVEFLCLIPKEGGE”, the “soluble on expression in E. coli” value is given as “not soluble”. With “MSLVTIYDVAAKAGVSIKTVSRVMNNEPNVRPVMRERVLAAAGELGYSPNLSARSLAGSRSFVIAVFVDAALTIDHWQSERGADYLSRIQLGATLVCRDAGYHLLIELIDHEGPQVRQEVAALLAALKPDGVILTPPSSDNAVVLELLDRAGTPYVRVGPERAEGLGPRVHMDDVAAAREMTDHLIGLGHKRIGFIVGEPRYGASQARRDGYLEAMRAKGLSVPEFWVRQGDFTFQSGLEQAKALLALPERPTAIFASNDDMALGAIAAIADAGLMTPGDVSVAGFDDSPSSRFSRPQLTTVRQPVAEMSSVAAKLLIERSRGGASTERPVDELLPFTLIHRASTEGHHHHHH”, the “soluble on expression in E. coli” value is “not soluble”.

For “AIIVKKTTEIEQTHKDYDPYQILGLDQGADEKAIKKAWRDMSKIHHPDRGGDAQFFDKIAKAHQALTDKEARENWEKYGNPDGPTATTFGIALPKWLVSKEYGL”, the “soluble on expression in E. coli” value is given as “not soluble”.

On to “MAVSLPTKYPLRPITNIPKSHRPSLLRVRVTCSVTTTKPQPNREKLLVEQRTVNLPLSNDQSLQSTKPRPNREKLVVEQRLASPPLSNDPTLKSTWTHRLWVAAGCTTLFVSLAKSVIGGFDSHLCLEPALAGYAGYILADLGSGVYHWAIDNYGDESTPVVGTQIEAFQGHHKWPWTITRRQFANNLHALAQVITFTVLPLDLAFNDPVFHGFVCTFAFCILFSQQFHAWAHGTKSKLPPLVVALQDMGLLVSRRQHAEHHRAPYNNNYCIVSGAWNNVLDESKVFEALEMVFYFQLGVRPRSWSEPNSDWIEETEISNNQA”, for which the “soluble on expression in E. coli” value was “soluble”.

Regarding “MSMAMSQSNRELVVDFLSYKLSQKGYSWSQFSDVEENRTEAPEGTESEAVKQALREAGDEFELRYRRAFSDLTSQLHITPGTAYQSFEQVVNELFRDGVNWGRIVAFFSFGGALCVESVDKEMQVLVSRIAAWMATYLNDHLEPWIQENGGWDTFVELYGNNAAAESRKGQERLEHHHHHH”, the “soluble on expression in E. coli” value is listed as “soluble”. Consider “MGSDKIHHHHHHMAAWRTVVIATSCHLRVRDRQLVIESREGERTQLPLADIGVVIVENPQVTLSAALLSALAQEGTALMSCDSSHLPDGVFAPFGTHSRHTRAARVQAVWSEPFKKRCWQKIVRAKVSSQAEVLRRVGAEDAARRLENLVGKVTSGDTTGVEAQAAQVYWRSLFVNFKRWDGGLDARNGGLNYGYAVLRGALGRAIAGAGLIPAFGLHHAGELNSFNLADDLIEPFRPFVDLLVWGLFLERTGDDPLTREERMRIAQILGESCIMTERYETLLSATQIIARSLVSAGEQKESRRLILPWMGEDDVQGEVYEADGDV”, for which the “soluble on expression in E. coli” value is “not soluble”.

In the case of “MAAQLDPSSEFAALVKQLQREPDNPGLKQAVVKRLPEMQLLAKTNSLALFRLAQVYSPSSSQHKQMILQSAAQGCTNAMLSACEILLKSGAANDLITAAHYMRLIQSSKDSYIIGLGKKLLEKYPDFAEELKSKEVPYQSTLRFFGVQSESNKENEEKIINRPTV”, the “soluble on expression in E. coli” value is reported as “not soluble”.
